The test system of the data set is MS2 coat protein. Kind of data set: apparent KD of MS2 coat protein; designed switch direction (-1 OFF switch, 1 ON switch): 1; higher = weaker reporter binding. A digest of the protocol: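 The apparent KD reported per design is the median over clusters of curve fits to normalised cluster fluorescence. The RNA switches were transcribed on Illumina chips by stalled E. coli RNA polymerase. SNAP-549-labelled MS2 coat protein was titrated from 0.7 or 1.5 nM, doubling up to 3 µM, in Tris-HCl pH 7.5 buffer containing KCl, MgCl2, BSA, DTT, tRNA and Tween-20, with no input, 200 uM small-molecule ligand, or an oligonucleotide input.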

[1] abbreviates: input ligand: microRNA oligo, concentration not stated.
The mark [2] stands for this setting: Eterna round: R95, input ligand: FMN 200 uM.
The mark [3] stands for this setting: Eterna round: R95, input ligand: microRNA oligo, concentration not stated.
Setting [4] is: Eterna round: R95, input ligand: none.

The values that follow come from the supplement of paper PMC9170038.

“ACAUGAGACCAAGGAUAUGUUGUACCUACAUGUGACAUGAGGAUCACCCAUGUGGUAAGUAUGAGACAGAAGGUGGAGAUAUGU [Equivalence 27 - Jieux - Same State NG 2] (Eterna round: R96, puzzle: Same State NG 2)”: the “apparent KD of MS2 coat protein” value worked out at 16.9 nM (input ligand: FMN 200 uM), 44.3 nM under setting [1] and 33.2 nM (input ligand: none).

Take “ACAUGAGAGAAAGGAUAUCUUGUACCUACAUGUGACAUGAGGAUCACCCAUGUGGUAAGUAUGACAGAGAAGGUUCAGAUAUGU [Equivalance 71 - Jieux - Same State NG 2] (Eterna round: R96, puzzle: Same State NG 2)”: the “apparent KD of MS2 coat protein” value runs as follows: (input ligand: FMN 200 uM) 38.7 nM; under setting [1], 61.1 nM; (input ligand: none) 86.3 nM.

Take “ACAUGAGGAUCACCCAUGUAUUUAUUUGAAUCUUAAGUUACGUAGGAUAUCGUGUAUACUAUCAUCGAGAAGGACGAUGUGAUA [JR_SSNG3_Sub068] (Eterna round: R96, puzzle: Same State NG 3)”: the “apparent KD of MS2 coat protein” value under setting [1] was found to be 12.5 nM.

For “ACCCAAAGUAUAUGGGAACAAGCUUUUUAACAUGAGGAUCACCCAUGUACUCGUCUUAUAAGCAGUCGAAAGACUGC [hsa-mir-208a sensor: 100] (Eterna round: R96, puzzle: Sensor for hsa-mir-208a)”, the “apparent KD of MS2 coat protein” value by setting is: (input ligand: FMN 200 uM) 557 nM; under setting [1], 14.3 nM; (input ligand: none) 877 nM.

As for “ACCCGCAGCCGUCAGGAUAUGUUCGCGUCAACAUGAGGAUCACCCAUGUGUGACAAGAAGUACACGCAGAAGGGAUCAAUGCGGG [Bienri] (Eterna round: R96, puzzle: Same State 2)”, the “apparent KD of MS2 coat protein” value was 13.4 nM (input ligand: FMN 200 uM), 11.7 nM under setting [1] and 17.8 nM (input ligand: none).

In the case of “ACCCGCGACGGAGGAUAUGGGCACUCGGCGGAAUAAACCGCCAUAACAUGAGGAUCACCCAUGUCCCAGAAGGCCGUCGCAAUC [Zaonesdive] (Eterna round: R96, puzzle: Same State NG 2)”, the “apparent KD of MS2 coat protein” value by setting is: (input ligand: FMN 200 uM) 107 nM; under setting [1], 303 nM; (input ligand: none) 2620 nM.

Turning to “ACGUGGAUAUCACAGGAUAUACUCAUAACUACAUGAGGAUCACCCAUGUAGCGGUAUUCCGAUGCGUAGAAGGGUGAUGGACCAC [Same State 2 - Mod of Artece v.2] (puzzle: Same State 2)”, the “apparent KD of MS2 coat protein” value reads like this: under setting [2], 13.9 nM; under setting [3], 14.9 nM; under setting [4], 17.4 nM.

Turning to “ACUAGAAACGGGCAAUAACACAUGAGGAUCACCCAUGUGACACAGGAUAUAACCAGAUCAGAAAGUUAGAAGGGUGAGCCCGCA [Edraed] (Eterna round: R96, puzzle: Same State NG 3)”, the “apparent KD of MS2 coat protein” value (input ligand: FMN 200 uM) was found to be 13.2 nM, the “apparent KD of MS2 coat protein” value under setting [1] is 25.9 nM and the “apparent KD of MS2 coat protein” value (input ligand: none) worked out at 35 nM.

In the case of “ACUUGCUUUUUGCUCAUCUUAUGUCCGAAACAUGAGGAUCACCCAUGUGUAGAUUAUGUGUUGUUUUUGAUACGUGA [JR_SHM208A_Sub066] (puzzle: Sensor for hsa-mir-208a)”, the “apparent KD of MS2 coat protein” value reads like this: under setting [2], 24.9 nM; under setting [3], 19 nM; under setting [4], 26.9 nM.

Regarding “AGAAAACAUGAGGAUCACCCAUGUAGAAAUAUGGGAGGAUAUACAAAGACGAAAGUCGAGGUAGAAGGCCUAAAGA [Mat - Same State 1 - Meechl mod - D122] (Eterna round: R96, puzzle: Same State 1)”, the “apparent KD of MS2 coat protein” value under setting [1] amounted to 77.9 nM.

For “AGAAAACAUGAGGAUCACCCAUGUAUAGUGAAUACAGGAUAUCACCAACGGAAUAGUCGGUGAGAAGGGUGAUCGC [Zaxelate] (puzzle: Same State 1)”, the “apparent KD of MS2 coat protein” value stood at 18.5 nM under setting [2], 11.3 nM under setting [3] and 14.2 nM under setting [4].

On to “AGAAAACAUGAGGAUCACCCAUGUAUAGUGAAUACAGGAUAUCACCGGCUGAAAAGCCGGUGAGAAGGGUGAUCGC [Atorenri] (puzzle: Same State 1)”, for which the “apparent KD of MS2 coat protein” value under setting [2] amounted to 149 nM, the “apparent KD of MS2 coat protein” value under setting [3] was 18.6 nM and the “apparent KD of MS2 coat protein” value under setting [4] is 7.7 nM.

With “AGAAGGAGAGCGCAGGAUAUCGAUAAUGACACAUGAGGAUCACCCAUGUUUGGUAUUAGAAGGAACGAGAAGGGUGAAAGGAGAA [knee_arm_01] (puzzle: Same State 2)”, the “apparent KD of MS2 coat protein” value runs as follows: under setting [2], 59.2 nM; under setting [3], 59.8 nM; under setting [4], 116 nM.

Regarding “AGACACAUGAGGAUCACCCAUGUCAUGAGCUUAGCUCGGGCACAGGAUAUCCGGUCCUAGAGACCGGAGAAGGGUGGCCGAAAA [Zara MOD] (Eterna round: R96, puzzle: Same State NG 3)”, the “apparent KD of MS2 coat protein” value (input ligand: FMN 200 uM) stood at 396 nM, the “apparent KD of MS2 coat protein” value under setting [1] amounted to 323 nM and the “apparent KD of MS2 coat protein” value (input ligand: none) came out at 670 nM.

Turning to “AGAGCCGGCACCGAGGAUAUUCAUAUUAAAACAUGAGGAUCACCCAUGUAGGCCAGAAGGCCUUGGGAGAAGGCGGAUCGGCUCG [Xeonanis - 7] (Eterna round: R96, puzzle: Same State 2)”, the “apparent KD of MS2 coat protein” value (input ligand: FMN 200 uM) is 32.5 nM, the “apparent KD of MS2 coat protein” value under setting [1] came out at 335 nM and the “apparent KD of MS2 coat protein” value (input ligand: none) was 559 nM.

In the case of “AGAGCCGGCACCGAGGAUAUUCAUAUUAAAACAUGAGGAUCACCCAUGUAGGCCAGAAGGCCUUGGGAGAAGGCGGAUCGGCUCG [Xeonanis - 7] (puzzle: Same State 2)”, the “apparent KD of MS2 coat protein” value is, setting by setting: under setting [2], 28.3 nM; under setting [3], 524 nM; under setting [4], 827 nM.

Regarding “AGAGUGUAUCCACAGGAUAUGCGAGCUGACACAUGAGGAUCACCCAUGUAGUCCUAAAGGGCUGAGCAGAAGGGUGGUAAAGCUC [Raesvelave] (puzzle: Same State 2)”, the “apparent KD of MS2 coat protein” value under setting [2] came out at 12.9 nM, the “apparent KD of MS2 coat protein” value under setting [3] came out at 44.2 nM and the “apparent KD of MS2 coat protein” value under setting [4] came to 53.6 nM.

For the sequence “AGAUGUUAAUUAGGAUAUGGACACAUGAGGAUCACCCAUGUAACGAAGAUACGAUGUGGUCAAGUCUAGAAGGGAUCGCUAACA [SameState NG2 #74] (Eterna round: R96, puzzle: Same State NG 2)”, the “apparent KD of MS2 coat protein” value reads like this: (input ligand: FMN 200 uM) 38.1 nM; under setting [1], 26.9 nM; (input ligand: none) 36.6 nM.

“AGAUGUUAAUUAGGAUAUGGGCACAUGAGGAUCACCCAUGUAACGUAGAUACGAUGUGGUCAAGUCUAGAAGGGAUAGCUAACA [SameState NG2 #77] (Eterna round: R96, puzzle: Same State NG 2)”: the “apparent KD of MS2 coat protein” value is, setting by setting: (input ligand: FMN 200 uM) 72.5 nM; under setting [1], 59.3 nM; (input ligand: none) 70.6 nM.

Turning to “AGCAGAGAAAUAGGAUAUGGCUGAGACAUGACGGCGGUACAUGAGGAUCACCCAUGUCCGCAAAGCCAGAAGGGUUUUGAAUGU [Ticecexe] (Eterna round: R96, puzzle: Same State NG 2)”, the “apparent KD of MS2 coat protein” value is 13.7 nM (input ligand: FMN 200 uM), 16.5 nM under setting [1] and 33.4 nM (input ligand: none).

For the sequence “AGCCGAGACUGAGGAUAUUUGUAUCUACAUGAGGAUCACCCAUGUAGCAACACGUGGUAGUGAUCGAAGAAGGCAGCUCGGCGC [MOD2 of Omei's SS(NG)2 Cv2] (Eterna round: R96, puzzle: Same State NG 2)”, the “apparent KD of MS2 coat protein” value by setting is: (input ligand: FMN 200 uM) 54 nM; under setting [1], 282 nM; (input ligand: none) 291 nM.

For “AGCCUGAGUCGAGGAUAUUAUGGAUCAAUUAAUACAUGAGGAUCACCCAUGUAAUUAAUUUAACAUGAGAAGGUGACUCAGGCA [SSNG2/10-B1] (Eterna round: R96, puzzle: Same State NG 2)”, under setting [1], the “apparent KD of MS2 coat protein” value was 8.66 nM.

On to “AGCGAGAUAGGCAAGGAUAUGCUGGGUUUCACAUGAGGAUCACCCAUGUCAUUGGUUAUGUCCGAGCAGAAGGUGCAUUCUCUUU [ak bound state multiloop solution 2] (puzzle: Same State 2)”, for which the “apparent KD of MS2 coat protein” value under setting [3] came to 250 nM.

In the case of “AGCUAAAACGAAGGAUAUACAAACAUGAGGAUCACCCAUGUAUACAUGAUUUAUUGUGAUCACAUGUAGAAGGUCGUACUAACA [SameState NG2 #19] (Eterna round: R96, puzzle: Same State NG 2)”, the “apparent KD of MS2 coat protein” value under setting [1] turned out to be 633 nM.

As to “AGCUAUUAAUCAGGAUAUAGGGACAUGAGGAUCACCCAUGUGUACAUGAUAAAAUGUGAUCACGUCUAGAAGGGAUUACUAACA [SameState NG2 #39] (Eterna round: R96, puzzle: Same State NG 2)”, the “apparent KD of MS2 coat protein” value under setting [1] came to 52.5 nM.

For “AGCUAUUACGAAGGAUAUUCUGACAUGAGGAUCACCCAUGUCUUCAUGAUUUAUUGUGAUCACAUGAAGAAGGUCGUACUAACA [SameState NG2 #24] (Eterna round: R96, puzzle: Same State NG 2)”, under setting [1], the “apparent KD of MS2 coat protein” value turned out to be 140 nM.

As to “AGGACGAGCACAGGAUAUCCGUGGAACAGACACGGAGAAGGGUGAAGUCAUGGAAAGAAAAGACAUGAGGAUCACCCAUGUAAA [Eszaonin] (Eterna round: R96, puzzle: Same State NG 1)”, the “apparent KD of MS2 coat protein” value was 132 nM (input ligand: FMN 200 uM), 61.3 nM under setting [1] and 310 nM (input ligand: none).

In the case of “AGGCCACCGGAAGGAUAUGGCACCUUAUUGGUGCCAGAAGGUCCAACAUGAGGAUCACCCAUGUGGGUGGGUUCUAAUGAACAU [Fiskers NG1 - 2] (Eterna round: R96, puzzle: Same State NG 1)”, the “apparent KD of MS2 coat protein” value is, setting by setting: (input ligand: FMN 200 uM) 76.5 nM; under setting [1], 37.6 nM; (input ligand: none) 47.9 nM.

With “AGGGAGGAGGCUGAGGAUAUCGUAAGGAGGACAUGAGGAUCACCCAUGUGUAUAGGAUUGGAGGACGAGAAGGCAGAGGAGUGGG [JR_SS2_Sub050] (puzzle: Same State 2)”, the “apparent KD of MS2 coat protein” value is, setting by setting: under setting [2], 41.1 nM; under setting [3], 26.6 nM; under setting [4], 28.9 nM.
